# Reference: patent US20210388087A1 (Chugai, published 2021)
# Biological target: T1, CD3 epsilon homodimer protein (UniProt P07766 23-126)
# T1 construct: also called CD3 (CD3 epsilon)
# Experiment: SPR, antibody over immobilised CD3e homodimer;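 also: SPR at 25 °C with CD3 epsilon homodimer amine-coupled to a CM4 sensor chip and antibody flowed over as analyte in HBS-EP+ running buffer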
# T1 sequence (P07766 23-126): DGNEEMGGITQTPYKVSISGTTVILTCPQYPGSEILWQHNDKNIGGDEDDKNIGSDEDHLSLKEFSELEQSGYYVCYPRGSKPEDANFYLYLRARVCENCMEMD
row,Binder,KD ratio to GLS3000
1,"CE115HA000/GLS3000 R54P (antibody, IgG1, name in Kabat numbering, V domains shown, one-arm IgG1) VH: QVQLVESGGGVVQPGRSLRLSCAASGFTFSNAWMHWVRQAPGKGLEWVAQIKAKSNNYATYYAESVKGRFTISRDDSKNSLYLQMNSLKTEDTAVYYCRYVHYGAYYGVDAWGQGTTVTVSS VL: DIVMTQSPLSLPVTPGEPASISCRSSQSLVHSNRNTYLHWYQQKPGQAPRLLIYKVSNPFSGVPDRFSGSGSGTDFTLKISRVEAEDVGVYYCGQGTQVPYTFGQGTKLEIK",1.05
2,"CE115HA000/GLS3000 R77S (antibody, IgG1, name in Kabat numbering, V domains shown, one-arm IgG1) VH: QVQLVESGGGVVQPGRSLRLSCAASGFTFSNAWMHWVRQAPGKGLEWVAQIKAKSNNYATYYAESVKGRFTISRDDSKNSLYLQMNSLKTEDTAVYYCRYVHYGAYYGVDAWGQGTTVTVSS VL: DIVMTQSPLSLPVTPGEPASISCRSSQSLVHSNRNTYLHWYQQKPGQAPRLLIYKVSNRFSGVPDRFSGSGSGTDFTLKISSVEAEDVGVYYCGQGTQVPYTFGQGTKLEIK",0.94
3,"CE115HA000/GLS3000 R54W (antibody, IgG1, name in Kabat numbering, V domains shown, one-arm IgG1) VH: QVQLVESGGGVVQPGRSLRLSCAASGFTFSNAWMHWVRQAPGKGLEWVAQIKAKSNNYATYYAESVKGRFTISRDDSKNSLYLQMNSLKTEDTAVYYCRYVHYGAYYGVDAWGQGTTVTVSS VL: DIVMTQSPLSLPVTPGEPASISCRSSQSLVHSNRNTYLHWYQQKPGQAPRLLIYKVSNWFSGVPDRFSGSGSGTDFTLKISRVEAEDVGVYYCGQGTQVPYTFGQGTKLEIK",0.65
4,"CE115HA000/GLS3000 S25T (antibody, IgG1, name in Kabat numbering, V domains shown, one-arm IgG1) VH: QVQLVESGGGVVQPGRSLRLSCAASGFTFSNAWMHWVRQAPGKGLEWVAQIKAKSNNYATYYAESVKGRFTISRDDSKNSLYLQMNSLKTEDTAVYYCRYVHYGAYYGVDAWGQGTTVTVSS VL: DIVMTQSPLSLPVTPGEPASISCRTSQSLVHSNRNTYLHWYQQKPGQAPRLLIYKVSNRFSGVPDRFSGSGSGTDFTLKISRVEAEDVGVYYCGQGTQVPYTFGQGTKLEIK",0.75
5,"CE115HA000/GLS3000 S25M (antibody, IgG1, name in Kabat numbering, V domains shown, one-arm IgG1) VH: QVQLVESGGGVVQPGRSLRLSCAASGFTFSNAWMHWVRQAPGKGLEWVAQIKAKSNNYATYYAESVKGRFTISRDDSKNSLYLQMNSLKTEDTAVYYCRYVHYGAYYGVDAWGQGTTVTVSS VL: DIVMTQSPLSLPVTPGEPASISCRMSQSLVHSNRNTYLHWYQQKPGQAPRLLIYKVSNRFSGVPDRFSGSGSGTDFTLKISRVEAEDVGVYYCGQGTQVPYTFGQGTKLEIK",1.6
6,"CE115HA000/GLS3000 R54Q (antibody, IgG1, name in Kabat numbering, V domains shown, one-arm IgG1) VH: QVQLVESGGGVVQPGRSLRLSCAASGFTFSNAWMHWVRQAPGKGLEWVAQIKAKSNNYATYYAESVKGRFTISRDDSKNSLYLQMNSLKTEDTAVYYCRYVHYGAYYGVDAWGQGTTVTVSS VL: DIVMTQSPLSLPVTPGEPASISCRSSQSLVHSNRNTYLHWYQQKPGQAPRLLIYKVSNQFSGVPDRFSGSGSGTDFTLKISRVEAEDVGVYYCGQGTQVPYTFGQGTKLEIK",1.04
7,"CE115HA000/GLS3000 R54S (antibody, IgG1, name in Kabat numbering, V domains shown, one-arm IgG1) VH: QVQLVESGGGVVQPGRSLRLSCAASGFTFSNAWMHWVRQAPGKGLEWVAQIKAKSNNYATYYAESVKGRFTISRDDSKNSLYLQMNSLKTEDTAVYYCRYVHYGAYYGVDAWGQGTTVTVSS VL: DIVMTQSPLSLPVTPGEPASISCRSSQSLVHSNRNTYLHWYQQKPGQAPRLLIYKVSNSFSGVPDRFSGSGSGTDFTLKISRVEAEDVGVYYCGQGTQVPYTFGQGTKLEIK",0.78
8,"CE115HA000/GLS3000 S25I (antibody, IgG1, name in Kabat numbering, V domains shown, one-arm IgG1) VH: QVQLVESGGGVVQPGRSLRLSCAASGFTFSNAWMHWVRQAPGKGLEWVAQIKAKSNNYATYYAESVKGRFTISRDDSKNSLYLQMNSLKTEDTAVYYCRYVHYGAYYGVDAWGQGTTVTVSS VL: DIVMTQSPLSLPVTPGEPASISCRISQSLVHSNRNTYLHWYQQKPGQAPRLLIYKVSNRFSGVPDRFSGSGSGTDFTLKISRVEAEDVGVYYCGQGTQVPYTFGQGTKLEIK",0.67
9,"CE115HA000/GLS3000 S25L (antibody, IgG1, name in Kabat numbering, V domains shown, one-arm IgG1) VH: QVQLVESGGGVVQPGRSLRLSCAASGFTFSNAWMHWVRQAPGKGLEWVAQIKAKSNNYATYYAESVKGRFTISRDDSKNSLYLQMNSLKTEDTAVYYCRYVHYGAYYGVDAWGQGTTVTVSS VL: DIVMTQSPLSLPVTPGEPASISCRLSQSLVHSNRNTYLHWYQQKPGQAPRLLIYKVSNRFSGVPDRFSGSGSGTDFTLKISRVEAEDVGVYYCGQGTQVPYTFGQGTKLEIK",4.93
10,"CE115HA000/GLS3000 S25A (antibody, IgG1, name in Kabat numbering, V domains shown, one-arm IgG1) VH: QVQLVESGGGVVQPGRSLRLSCAASGFTFSNAWMHWVRQAPGKGLEWVAQIKAKSNNYATYYAESVKGRFTISRDDSKNSLYLQMNSLKTEDTAVYYCRYVHYGAYYGVDAWGQGTTVTVSS VL: DIVMTQSPLSLPVTPGEPASISCRASQSLVHSNRNTYLHWYQQKPGQAPRLLIYKVSNRFSGVPDRFSGSGSGTDFTLKISRVEAEDVGVYYCGQGTQVPYTFGQGTKLEIK",0.73

# Continued, values first:
row,KD ratio to GLS3000,Binder
1,8.86,"CE115HA000/GLS3000 S25D (antibody, IgG1, name in Kabat numbering, V domains shown, one-arm IgG1) VH: QVQLVESGGGVVQPGRSLRLSCAASGFTFSNAWMHWVRQAPGKGLEWVAQIKAKSNNYATYYAESVKGRFTISRDDSKNSLYLQMNSLKTEDTAVYYCRYVHYGAYYGVDAWGQGTTVTVSS VL: DIVMTQSPLSLPVTPGEPASISCRDSQSLVHSNRNTYLHWYQQKPGQAPRLLIYKVSNRFSGVPDRFSGSGSGTDFTLKISRVEAEDVGVYYCGQGTQVPYTFGQGTKLEIK"
2,0.79,"CE115HA000/GLS3000 S25P (antibody, IgG1, name in Kabat numbering, V domains shown, one-arm IgG1) VH: QVQLVESGGGVVQPGRSLRLSCAASGFTFSNAWMHWVRQAPGKGLEWVAQIKAKSNNYATYYAESVKGRFTISRDDSKNSLYLQMNSLKTEDTAVYYCRYVHYGAYYGVDAWGQGTTVTVSS VL: DIVMTQSPLSLPVTPGEPASISCRPSQSLVHSNRNTYLHWYQQKPGQAPRLLIYKVSNRFSGVPDRFSGSGSGTDFTLKISRVEAEDVGVYYCGQGTQVPYTFGQGTKLEIK"
3,8.54,"CE115HA000/GLS3000 S25E (antibody, IgG1, name in Kabat numbering, V domains shown, one-arm IgG1) VH: QVQLVESGGGVVQPGRSLRLSCAASGFTFSNAWMHWVRQAPGKGLEWVAQIKAKSNNYATYYAESVKGRFTISRDDSKNSLYLQMNSLKTEDTAVYYCRYVHYGAYYGVDAWGQGTTVTVSS VL: DIVMTQSPLSLPVTPGEPASISCRESQSLVHSNRNTYLHWYQQKPGQAPRLLIYKVSNRFSGVPDRFSGSGSGTDFTLKISRVEAEDVGVYYCGQGTQVPYTFGQGTKLEIK"
4,0.89,"CE115HA000/GLS3000 R54T (antibody, IgG1, name in Kabat numbering, V domains shown, one-arm IgG1) VH: QVQLVESGGGVVQPGRSLRLSCAASGFTFSNAWMHWVRQAPGKGLEWVAQIKAKSNNYATYYAESVKGRFTISRDDSKNSLYLQMNSLKTEDTAVYYCRYVHYGAYYGVDAWGQGTTVTVSS VL: DIVMTQSPLSLPVTPGEPASISCRSSQSLVHSNRNTYLHWYQQKPGQAPRLLIYKVSNTFSGVPDRFSGSGSGTDFTLKISRVEAEDVGVYYCGQGTQVPYTFGQGTKLEIK"
5,0.74,"CE115HA000/GLS3000 S25V (antibody, IgG1, name in Kabat numbering, V domains shown, one-arm IgG1) VH: QVQLVESGGGVVQPGRSLRLSCAASGFTFSNAWMHWVRQAPGKGLEWVAQIKAKSNNYATYYAESVKGRFTISRDDSKNSLYLQMNSLKTEDTAVYYCRYVHYGAYYGVDAWGQGTTVTVSS VL: DIVMTQSPLSLPVTPGEPASISCRVSQSLVHSNRNTYLHWYQQKPGQAPRLLIYKVSNRFSGVPDRFSGSGSGTDFTLKISRVEAEDVGVYYCGQGTQVPYTFGQGTKLEIK"
